Substitutions are numbered along the chain they refer to. Names may count otherwise. Values belong to the molecule of their own block, whether it stands above or below them.
Assays:
[1] = target: T1, MBP-PABPN1-HA-(His)6 (mouse); experiment: pull-down; MBP-PABPN1 immobilised on amylose resin and incubated with (His)6-PAP-myc and GST-TTP together; blots with anti-GST and anti-myc quantitated; oligo(A)12 added to some samples
T1 sequence (Q8CCS6 whole entry, looked up): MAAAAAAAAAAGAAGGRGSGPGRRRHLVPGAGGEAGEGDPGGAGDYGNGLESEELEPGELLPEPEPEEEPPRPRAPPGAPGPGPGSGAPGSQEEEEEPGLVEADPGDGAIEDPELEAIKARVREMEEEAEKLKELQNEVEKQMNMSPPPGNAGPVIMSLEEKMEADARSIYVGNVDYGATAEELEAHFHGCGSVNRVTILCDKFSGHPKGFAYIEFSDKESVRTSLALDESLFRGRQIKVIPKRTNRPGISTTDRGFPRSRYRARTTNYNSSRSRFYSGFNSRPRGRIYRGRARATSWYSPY

[2] = target: T2, hexahistidine-PAP-myc (UniProt Q61183-1 1-739); experiment: co-IP; 0.5 µg bacterially expressed GST-TTP construct and 0.5 µg (His)6-PAP-myc with anti-myc agarose in 10 mM Tris pH 7.0, 0.15 M NaCl, 1 mM MgCl2, 0.7 mM ZnCl2, 0.1% NP-40, 4°C overnight; blots with anti-myc and anti-GST; details: both partners purified
T2 construct: poly(A) polymerase (PAP), NM_011112, in a pQE expression vector; also called (His)6-PAP-myc; poly(A) polymerase; source: bacterially expressed (E. coli STBL2 or Rosetta(DE3)pLacI), purified; not shown: His6, N-terminal, kept; myc, C-terminal, kept

[3] = target: (His)6-PABPN1 (mouse) (UniProt O35445)

T2 sequence (Q61183 whole entry): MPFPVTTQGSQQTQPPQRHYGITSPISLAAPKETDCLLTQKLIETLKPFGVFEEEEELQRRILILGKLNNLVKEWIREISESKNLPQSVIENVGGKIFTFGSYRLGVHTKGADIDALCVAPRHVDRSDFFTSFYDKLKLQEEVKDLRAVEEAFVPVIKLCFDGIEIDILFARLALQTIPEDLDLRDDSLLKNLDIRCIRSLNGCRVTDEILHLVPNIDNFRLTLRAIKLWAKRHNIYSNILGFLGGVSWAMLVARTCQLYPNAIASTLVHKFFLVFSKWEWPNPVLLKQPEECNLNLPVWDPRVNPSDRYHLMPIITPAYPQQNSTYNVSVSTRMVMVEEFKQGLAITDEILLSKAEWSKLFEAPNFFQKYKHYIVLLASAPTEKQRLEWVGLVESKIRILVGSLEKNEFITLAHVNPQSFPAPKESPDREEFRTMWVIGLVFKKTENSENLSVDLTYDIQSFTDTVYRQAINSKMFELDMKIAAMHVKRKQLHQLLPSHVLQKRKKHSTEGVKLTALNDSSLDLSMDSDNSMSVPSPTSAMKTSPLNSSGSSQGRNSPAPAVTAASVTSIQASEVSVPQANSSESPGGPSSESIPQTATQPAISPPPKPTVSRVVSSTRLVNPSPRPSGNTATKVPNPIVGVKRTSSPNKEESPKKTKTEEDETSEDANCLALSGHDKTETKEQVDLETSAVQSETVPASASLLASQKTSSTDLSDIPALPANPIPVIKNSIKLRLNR

Molecule: hexahistidine-PAP-myc (from UniProt Q61183-1 1-739) (enzyme)
fold change of PAP pulled down with GST-TTP present, against PAP alone [1]: 4 fold

B1: GST-TTP@95-158 (domain or fragment, mouse, UniProt P22893 95-158, looked up)
chain: RYKTELCRTYSESGRCRYGAKCQFAHGLGELRQANRHPKYKTELCHKFYLQGRCPYGSRCHFIH
notes: also called TZF construct; TZF domain; source: E. coli STBL2 or Rosetta(DE3)pLacI, purified (glutathione-agarose); not shown: GST, N-terminal, kept
binding result [2]: binds

B5: N-terminally glutathione S-transferase-tagged wild-type TTP (natural protein, mouse, UniProt P22893 2-319, looked up)
chain: DLSAIYESLQSMSHDLSSDHGGTESLGGLWNINSDSIPSGVTSRLTGRSTSLVEGRSCGWVPPPPGFAPLAPRPGPELSPSPTSPTATPTTSSRYKTELCRTYSESGRCRYGAKCQFAHGLGELRQANRHPKYKTELCHKFYLQGRCPYGSRCHFIHNPTEDLALPGQPHVLRQSISFSGLPSGRRSSPPPPGFSGPSLSSCSFSPSSSPPPPGDLPLSPSAFSAAPGTPVTRRDPNQACCPSCRRSTTPSTIWGPLGGLARSPSAHSLGSDPDDYASSGSSLGGSDSPVFEAGVFGPPQTPAPPRRLPIFNRISVSE
notes: also called WT GST-TTP; GST-TTP; source: E. coli STBL2 or Rosetta(DE3)pLacI, purified (glutathione-agarose); not shown: GST, N-terminal, kept
amount of TTP pulled down with (His)6-PAP-myc present, against TTP alone [1]: 80%
binding result [2]: binds
in vitro polyadenylation of TNFα-ARE A20 RNA by (His)6-PAP-myc with (His)6-PABPN1: reduction of the processive addition of adenosines by GST-TTP at 2 and 5 min [3]: 45%

The next lines start with the values.

binding result [2]: binds
B2: GST-TTP@95-158(F118N) (domain or fragment, mouse, UniProt P22893 95-158, looked up)
chain: B1 chain with F24N
notes: source: E. coli STBL2 or Rosetta(DE3)pLacI, purified (glutathione-agarose); not shown: GST, N-terminal, kept

binding result [2]: binds
B3: GST-TTP@2-186 (domain or fragment, mouse, UniProt P22893 2-186, looked up)
chain: DLSAIYESLQSMSHDLSSDHGGTESLGGLWNINSDSIPSGVTSRLTGRSTSLVEGRSCGWVPPPPGFAPLAPRPGPELSPSPTSPTATPTTSSRYKTELCRTYSESGRCRYGAKCQFAHGLGELRQANRHPKYKTELCHKFYLQGRCPYGSRCHFIHNPTEDLALPGQPHVLRQSISFSGLPSGR
notes: as for B2

binding result [2]: binds
B4: GST-TTPΔ95–158 (natural protein, mouse, UniProt P22893 2-319, looked up)
chain: DLSAIYESLQSMSHDLSSDHGGTESLGGLWNINSDSIPSGVTSRLTGRSTSLVEGRSCGWVPPPPGFAPLAPRPGPELSPSPTSPTATPTTSSNPTEDLALPGQPHVLRQSISFSGLPSGRRSSPPPPGFSGPSLSSCSFSPSSSPPPPGDLPLSPSAFSAAPGTPVTRRDPNQACCPSCRRSTTPSTIWGPLGGLARSPSAHSLGSDPDDYASSGSSLGGSDSPVFEAGVFGPPQTPAPPRRLPIFNRISVSE
notes: also called TZF domain-deleted TTP mutant; source: E. coli STBL2 or Rosetta(DE3)pLacI, purified (glutathione-agarose); not shown: GST, N-terminal, kept

binding result [2]: binds
B6: GST-TTP@2-319(F118N) (natural protein, mouse, UniProt P22893 2-319, looked up)
chain: B5 chain with F117N
notes: as for B2

Source: PMC3406032, “Tristetraprolin Inhibits Poly(A)-Tail Synthesis in Nuclear mRNA that Contains AU-Rich Elements by Interacting with Poly(A)-Binding Protein Nuclear 1” (PLoS ONE, 2012)
